Results published in article PMC11258689, “A Snake Venom Peptide and Its Derivatives Prevent Aβ42 Aggregation and Eliminate Toxic Aβ42 Aggregates In Vitro” (ACS Chemical Neuroscience, 2024).
No end group written: not given here.

Columns and labels:
Details in all cases: both partners purified
amyloid-β (1–42) [1] = biological target: T1, amyloid-β (1–42) (UniProt P05067 672-713); assay: SPR; Biacore T200; CDP-1 immobilised by amine coupling (1916.5 RU); Aβ42 as analyte 1.85 to 0.02 μM; 10 mM HEPES + 50 mM NaCl + 0.05% Tween 20, 25 °C; multicycle; methods: 1:1 kinetic fit with global Rmax (the table's head says steady-state fitting)
T1 construct: also called Aβ42; Aβ (1–42); source: bought: Bachem (Bubendorf, Switzerland); suspended in HFIP, lyophilized

amyloid-β (1–42) [2] = biological target: T1, amyloid-β (1–42); assay: SPR; Biacore T200; Aβ42 immobilised on a CM-5 chip by amine coupling (900 RU); peptides as analytes 50 to 0.02 μM; 10 mM HEPES + 50 mM NaCl + 0.05% Tween 20, 25 °C, 30 μL/min; multicycle; steady-state affinity model
amyloid-β (1–42) [3] = biological target: T1, amyloid-β (1–42); assay: as above; remark: listed apart in the source

B1: crotamine derivative peptide CDP-1 (peptide)
peptide: KMDCRWRWKCCKK
modifications: acetylated at the N-terminus; methylated at the C-terminus
notes: crotamine of Crotalus durissus terrificus venom, Lys27 to Lys39; […]; L-amino acids; For SPR this peptide was immobilised by amine coupling (1916.5 RU); also called crotamine (Lys27–Lys39); mother L-peptide CDP-1; source: synthetic peptide (Genscript, purity >95%)
amyloid-β (1–42) [1]
  Kd: 410 nM

B2: crotamine derivative peptide CDP-6 (peptide)
peptide: Ac-KMDSRWRWKCSKK
modifications: not fully specified (C-terminus); also: methylated at the C-terminus
notes: positions worked out from Lys27–Lys39; […]; L-amino acids; source: synthetic peptide (Genscript, purity >95%)
amyloid-β (1–42) [2]
  Kd: 26.4 µM

B3: crotamine derivative peptide CDP-2 (peptide)
peptide: Ac-KMDSRWRWKSSKK
modifications: not fully specified (C-terminus); also: methylated at the C-terminus
notes: […]; L-amino acids; source: synthetic peptide (Genscript, purity >95%)
amyloid-β (1–42) [3]
  Kd: 3.25 µM
